# Results taken from patent US20250157661.
# B1: MMP7 (Enzo) (protein)
# chain: YSLFPNSPKWTSKVVTYRIVSYTRDLPHITVDRLVSKALNMWGKEIPLHFRKVVWGTADIMIGFARGAHGDSYPFDGPGNTLAHAFAPGTGLGGDAHFDEDERWTDGSSLGINFLYAATHELGHSLGMGHSSDPNAVMYPTYGNGDPQNFKLSQDDIKGIQKLYGKRSNSRKK
# B2: MMP12 (Enzo) (protein)
# chain: GPVWRKHYITYRINNYTPDMNREDVDYAIRKAFQVWSNVTPLKFSKINTGMADILVVFARGAHGDFHAFDGKGGILAHAFGPGSGIGGDAHFDEDEFWTTHSGGTNLFLTAVHEIGHSLGLGHSSDPKAVMFPTYKYVDINTFRLSADDIRGIQSLYG
# B3: MMP11 (Enzo) (protein)
# chain: FVLSGGRWEKTDLTYRILRFPWQLVQEQVRQTMAEALKVWSDVTPLTFTEVHEGRADIMIDFARYWHGDDLPFDGPGGILAHAFFPKTHREGDVHFDYDETWTIGDDQGTDLLQVAAHEFGHVLGLQHTTAAKALMSAFYTFRYPLSLSPDDCRGVQHLYGQPWPTVTSRTPALG
# B4: MMP1 (Enzo) (protein)
# chain: FVLTEGNPRWEQTHLTYRIENYTPDLPRADVDHAIEKAFQLWSNVTPLTFTKVSEGQADIMISFVRGDHRDNSPFDGPGGNLAHAFQPGPGIGGDAHFDEDERWTNNFREYNLHRVAAHELGHSLGLSHSTDIGALMYPSYTFSGDVQLAQDDIDGIQAIYGRSQNPVQP
# Biological target: Indicator molecule containing the cleavable sequence GPQGIFGQ with a terminal biotin group connected via a polyethylene glycol spacer/linker (intact, Examples 1-6)
row,Protein,"Reader value (lateral flow, CF1522-gold) with MMP at 0.5 ug/ml [reader units]"
1,B1,373
2,B2,1250
3,B3,280
4,B4,478
